# Substitutions are numbered along the chain they refer to. Numbers in names are those of the source.
# B1: A156V/L174P: cyclodextrin glucosyltransferase mutant: alanine 156 into valine and leucine 174 into proline of SEQ ID NO: 1 (protein)
# chain: SPDTSVDNKVNFSTDVIYQIVTDRFADGDRTNNPAGDAFSGDRSNLKLYFGGDWQGIIDKINDGYLTGMGVTALWISQPVENITSVIKYSGVNNTSYHGYWARDFKQTNDAFGDFADFQNLIDTAHAHNIKVVIDFAPNHTSPADRDNPGFAENGVLYDNGSLLGAYSNDTAGPFHHNGGTDFSTIEDGIYKNLYDLADINHNNNAMDAYFKSAIDLWLGMGVDGIRFDAVKHMPFGWQKSFVSSIYGGDHPVFTFGEWYLGADQTDGDNIKFANESGMNLLDFEYAQEVREVFRDKTETMKDLYEVLASTESQYDYINNMVTFIDNHDMDRFQVAGSGTRATEQALALTLTSRGVPAIYYGTEQYMTGDGDPNNRAMMTSFNTGTTAYKVIQALAPLRKSNPAIAYGTTTERWVNNDVLIIERKFGSSAALVAINRNSSAAYPISGLLSSLPAGTYSDVLNGLLNGNSITVGSGGAVTNFTLAAGGTAVWQYTAPETSPAIGNVGPTMGQPGNIVTIDGRGFGGTAGTVYFGTTAVTGSGIVSWEDTQIKAVIPKVAAGKTGVSVKTSSGTASNTFKSFNVLTGDQVTVRFLVNQANTNYGTNVYLVGNAAELGSWDPNKAIGPMYNQVIAKYPSWYYDVSVPAGTKLDFKFIKKGGGTVTWEGGGNHTYTTPASGVGTVTVDWQN
# modifications: Translated from synthetic DNA
# B2: A156V/L174P/A166G: cyclodextrin glucosyltransferase mutant: A156V, L174P and alanine 166 into glycine of SEQ ID NO: 1 (protein)
# chain: B1 chain with A166G
# modifications: Translated from synthetic DNA
# B3: Wild type: cyclodextrin glucosyltransferase with the amino acid sequence shown as SEQ ID NO: 1 (protein)
# chain: B1 chain with V156A, P174L
# modifications: Translated from synthetic DNA
# B4: A156V/L174P/A166V: cyclodextrin glucosyltransferase mutant: A156V, L174P and alanine 166 into valine of SEQ ID NO: 1 (protein)
# chain: B1 chain with A166V
# modifications: Translated from synthetic DNA
# B5: A156V/L174P/A166K: cyclodextrin glucosyltransferase mutant: A156V, L174P and alanine 166 into lysine of SEQ ID NO: 1 (protein)
# chain: B1 chain with A166K
# modifications: Translated from synthetic DNA
# Assay: Specificity of different cyclodextrin glucosyltransferases to glycosylated genistein products (maltodextrin donor, genistein receptor, HPLC)
# Type: biochemical
# Conditions: 40° C., pH 6.5, 120 rpm, 20-24 hours
# Protocol: Genistein (purchased from Sigma) was dissolved in dimethyl sulfoxide (DMSO) to prepare a genistein solution with a final concentration of 7.5 g/L; maltodextrin (purchased from Shanghai Sangon Biotech Co., Ltd.) was dissolved in a PBS buffer (50 mM, pH 6.5) to prepare a maltodextrin solution with a final concentration of 40 g/L; the freeze-fried pure enzymes of the mutants A156V/L174P, A156V/L174P/166Y, A156V/L174P/A166V, A156V/L174P/A166G, A156V/L174P/A166K, A156S, A156L and L174M obtained in Example 1 were dissolved in a PBS buffer (50 mM, pH 6.5) separately to prepare a CGTase enzyme solution with a final concentration of 15 U/L; 300 μL of the genistein solution, 500 μL of the maltodextrin solution and 200 μL of the CGTase enzyme solution were taken separately, mixed in a 2 mL vial with a lid and placed in a shaker for slow shaking at 40° C. and 120 rpm for 20-24 hours to obtain a reaction solution.
# The molar content of short-chain glycosylated genistein (here the short-chain glycosylated genistein was a mixture of monoglycosylated genistein, diglycosylated genistein and triglycosylated genistein) and long-chain glycosylated genistein (here the long-chain glycosylated genistein was a mixture of tetraglycosylated genistein, pentaglycosylated genistein and hexaglycosylated genistein) in the reaction solution was detected by HPLC, the ratio (%) of the molar content of short-chain glycosylated genistein and long-chain glycosylated genistein in the reaction solution to the molar content of total glycosylated genistein in the reaction solution and the content (g/L) of short-chain glycosylated genistein and long-chain glycosylated genistein in the reaction solution were calculated, and detection results were shown in Tables 1 to 2. A method for detecting the ratio (%) of the content of short-chain glycosylated genistein and long-chain glycosylated genistein in the reaction solution to the content of total glycosylated genistein in the reaction solution by HPLC included that the reaction solution was filtered through a 0.22 μm filter membrane, and an Amethyst C18-H column (4.6*250 mm, Sepax, America) was used for detection (see Table 3 for specific detection conditions). The content of long-chain glycosylated genistein=the molar content of hexaglycosylated genistein*the molecular weight of hexaglycosylated genistein+ the molar content of pentaglycosylated genistein*the molecular weight of pentaglycosylated genistein+ the molar content of tetraglycosylated genistein*the molecular weight of tetraglycosylated genistein, and the content of short-chain glycosylated genistein=the molar content of triglycosylated genistein*the molecular weight of triglycosylated genistein+ the molar content of diglycosylated genistein*the molecular weight of diglycosylated genistein+ the molar content of monoglycosylated genistein*the molecular weight of monoglycosylated genistein.
content of long-chain glycosylated genistein in the reaction solution [g/L],content of short-chain glycosylated genistein in the reaction solution [g/L],ratio of the molar content of long-chain glycosylated genistein to the molar content of total glycosylated genistein in the reaction solution [%],ratio of the molar content of short-chain glycosylated genistein to the molar content of total glycosylated genistein in the reaction solution [%],Molecule
5.2,9.7,25,75,B1
4.4,10.9,20,80,B2
3.2,11.4,15,85,B3
6.8,9.5,29,71,B4
5.1,10.1,24,76,B5

# Same assay, conditions: in words, from Tables 1 to 2
row,specificity to long-chain glycosylated genistein products in comparison with wild type,Molecule
1,significantly improved,B1
2,significantly improved,B2
3,significantly improved,B4
4,significantly improved,B5

# Same assay, conditions: versus wild type
row,increase of the yield of long-chain glycosylated genistein compared with wild-type cyclodextrin glucosyltransferase [%],Molecule
1,62.5,B1
2,112.5,B4
3,59.4,B5

# Source: US11203743B2, “Method for producing long-chain glycosylated genistein” (Jiangnan University, priority 2019, dated 2021)
